Experimental data taken from paper PMC5105068.

Target: soluble γc protein (sγc), recombinant murine (mouse)
Test: immunoprecipitation and immunoblot, SDS-PAGE under reducing and non-reducing conditions; culture supernatant of sγc expressing 293 T cells immunoprecipitated and immunoblotted with anti-γc ectodomain antibodies; resolved with (+ DTT) or without reduction

## soluble γc protein (sγc), recombinant murine (natural protein)
  stoichiometry N: 2
